The target of test [1] is rat µ opioid receptor (HA-µOR), stably expressed in HEK293 cells (rat) (UniProt P33535).
Test [2] shares this target. The experiment in a line: radioligand binding; competition with 5 nM [3H]-naloxone as tracer; 20 µg total membranes of HEK293-µOR cells in DMEM, 37 °C, 1 h, filtration over GF/C filters; Ki.

pKi: −log10 of the molar value.

Sequence of UniProt P33535 (P33535 whole entry): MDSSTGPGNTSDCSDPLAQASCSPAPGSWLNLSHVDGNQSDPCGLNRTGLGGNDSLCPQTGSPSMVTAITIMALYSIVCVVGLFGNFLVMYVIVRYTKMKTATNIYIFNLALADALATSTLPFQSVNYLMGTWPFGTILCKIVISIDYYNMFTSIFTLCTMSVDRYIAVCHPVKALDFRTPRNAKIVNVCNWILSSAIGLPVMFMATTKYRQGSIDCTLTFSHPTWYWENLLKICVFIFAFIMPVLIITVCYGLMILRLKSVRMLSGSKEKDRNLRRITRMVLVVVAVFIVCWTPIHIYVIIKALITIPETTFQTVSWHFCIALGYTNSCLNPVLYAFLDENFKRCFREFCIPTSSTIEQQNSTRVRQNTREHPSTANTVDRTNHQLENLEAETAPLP

As to endomorphin-1 (peptide), in test [1], the ERK-1/2 phosphorylation after 2.5 min in HEK293-µOR cells (western blot), EC50 stood at 5.8 nM and the inhibition of FSK (10 µM) induced cAMP accumulation in HEK293-µOR cells, EC50 amounted to 4.17 nM. The substance also had a negative logarithm of the Ki (pKi) in test [2] of 7.40.

These data come from article PMC12198324.
